Molecular target: NBS1 (UniProt O60934)
Test: anti-Flag co-IP
Conditions: reference: wild-type Syk-Flag; sites T504

binding against the reference: lost
Substance: Syk (from UniProt P43405) Syk T504A

Source: PMC10275042
